These results are taken from PMC2563037.

This assay concerns the target H-2K^b (MHC class I heavy chain with its light chain, the 'heterodimer' of the crystal structures) (mouse | not stated). As to the kind of experiment: circular dichroism thermal melt; far-UV CD of the H-2K^b/peptide-Aba complexes, thermostatted cuvette, 30 to 90°C.

Non-standard residues stand in square brackets, D forms with d. No end group written: not given here. Abu = CC[C@H](N)C(=O)O

In the case of R[Abu]YIFANI, the Tm of the complex is 64 °C.

R[Abu]QIFANI: the Tm of the complex amounted to 54 °C.
